Results taken from paper PMC11601465.

Legend:
Nyl50 [1] = assay: AUC
Nyl50 [2] = assay: SEC
Nyl50 [3] = assay: AUC; remark: listed apart in the source

- stoichiometry N (Nyl50 [1]): 2
- stoichiometry N (Nyl50 [2]): 2
- stoichiometry N (Nyl50 [3]): 4
Substance: Nyl50 (enzyme)
